Assay results: patent US8491891B2, “Human beta-glucuronidase mutants with elevated enzymatic activity under physiological conditions and method for identifying such” (Academia Sinica, priority 2008, dated 2013)

Assay: Enzymatic activity of mouse versus human β-glucuronidase at pH 7.0
Assay type: biochemical
From the text: Each of the cDNAs encoding human and mouse beta-glucuronidases (Genbank accession no. NM_000181, 03-SEP-2009 and Genbank accession no. J02836.1, 29-APR-1996) was fused to the juxtamembrane Ig-like extracellular domain, transmembrane domain and cytoplasmic tail of murine B7-1. See Chen et al., Cancer Gene Ther 14:187-200 (2007).

B1: Mouse β-glucuronidase: mouse beta-glucuronidase, Genbank accession no. J02836.1 (protein)
chain: LKGGMLFPKESPSRELKALDGLWHFRADLSNNRLQGFEQQWYRQPLRESGPVLDMPVPSSFNDITQEAALRDFIGWVWYEREAILPRRWTQDTDMRVVLRINSAHYYAVVWVNGIHVVEHEGGHLPFEADISKLVQSGPLTTCRITIAINNTLTPHTLPPGTIVYKTDTSMYPKGYFVQDTSFDFFNYAGLHRSVVLYTTPTTYIDDITVITNVEQDIGLVTYWISVQGSEHFQLEVQLLDEGGKVVAHGTGNQGQLQVPSANLWWPYLMHEHPAYMYSLEVKVTTTESVTDYYTLPIGIRTVAVTKSKFLINGKPFYFQGVNKHEDSDIRGKGFDWPLLVKDFNLLRWLGANSFRTSHYPYSEEVLQLCDRYGIVVIDECPGVGIVLPQSFGNESLRHHLEVMEELVRRDKNHPAVVMWSVANEPSSALKPAAYYFKTLITHTKALDLTRPVTFVSNAKYDADLGAPYVDVICVNSYFSWYHDYGHLEVIQPQLNSQFENWYKTHQKPIIQSEYGADAIPGIHEDPPRMFSEEYQKAVLENYHSVLDQKRKEYVVGELIWNFADFMTNQSPLRVIGNKKGIFTRQRQPKTSAFILRERYWRIANETGGHGSGPRTQCFGSRPFTFKADFSTPNITESGNPSADTKRITCFASGGFPKPRFSWLENGRELPGINTTISQDPESELYTISSQLDFNTTRNHTIKCLIKYGDAHVSEDFTWEKPPEDPPDSKNTLVLFGAGFGAVITVVVIVVIIKCFCKHRSCFRRNEASRETNNSLTFGPEEALAEQTVFL
modifications: left off: small tags and cut ends
Q: With B1 as the molecule, how does the “Enzymatic activity compared with human β-glucuronidase” value read?
A: The value was “about three-fold greater”.
